Reference: publication PMC2691592, “Caenorhabditis elegans Protein Arginine Methyltransferase PRMT-5 Negatively Regulates DNA Damage-Induced Apoptosis” (PLoS Genetics, 2009)

Biological target: T1, PRMT-5His6 (C. elegans, UniProt P46580 1-734)
T1 construct: C. elegans protein arginine methyltransferase PRMT-5, open reading frame C34E10.5, a protein of 734 amino acids; cDNA of prmt-5 cloned into pET21a; also called purified PRMT-5His6 protein; recombinant PRMT-5
Assay: pull-down; GST-CEP-1 or GST immobilised on glutathione sepharose beads, incubated with purified PRMT-5His6 for more than 2 h; bound PRMT-5His6 detected by immunoblot with anti-PRMT-5 antibody
Settings: both partners purified

T1 sequence (P46580 whole entry): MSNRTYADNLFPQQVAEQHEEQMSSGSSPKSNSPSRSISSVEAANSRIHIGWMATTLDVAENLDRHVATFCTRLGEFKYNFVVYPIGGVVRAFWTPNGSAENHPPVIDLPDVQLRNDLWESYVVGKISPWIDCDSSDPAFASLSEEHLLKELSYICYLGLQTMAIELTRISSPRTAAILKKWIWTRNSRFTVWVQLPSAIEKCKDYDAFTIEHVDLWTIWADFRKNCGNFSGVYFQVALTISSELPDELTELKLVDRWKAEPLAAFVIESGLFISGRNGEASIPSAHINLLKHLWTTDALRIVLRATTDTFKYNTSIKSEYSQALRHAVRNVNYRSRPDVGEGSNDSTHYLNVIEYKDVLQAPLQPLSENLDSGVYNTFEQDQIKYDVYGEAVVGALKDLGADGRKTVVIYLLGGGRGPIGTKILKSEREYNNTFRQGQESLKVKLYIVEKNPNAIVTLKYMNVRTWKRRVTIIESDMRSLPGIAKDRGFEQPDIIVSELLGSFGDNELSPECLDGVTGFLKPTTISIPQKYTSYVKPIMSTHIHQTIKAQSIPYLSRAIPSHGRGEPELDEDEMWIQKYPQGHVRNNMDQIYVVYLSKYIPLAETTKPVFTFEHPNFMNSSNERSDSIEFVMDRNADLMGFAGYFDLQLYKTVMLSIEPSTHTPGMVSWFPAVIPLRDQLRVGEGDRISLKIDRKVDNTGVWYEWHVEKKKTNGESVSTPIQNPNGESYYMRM

B1: GST-CEP-1 (natural protein, C. elegans, UniProt Q20646 1-644, looked up)
chain: MEPDDSQLSDILKDARIPDSQDIGVNLTQNLSFDTVQKMIDGVFTPIFSQGTEDSLEKDILKTPGISTIYNGILGNGEETKKRTPKISDAFEPDLNTSGDVFDSDKSEDGLMNDESYLSNTTLSQVVLDSQKYEYLRVRTEEEQQLVIEKRARERFIRKSMKIAEETALSYENDGSRELSETMTQKVTQMDFTETNVPFDGNDESSNLAVRVQSDMNLNEDCEKWMEIDVLKQKVAKSSDMAFAISSEHEKYLWTKMGCLVPIQVKWKLDKRHFNSNLSLRIRFVKYDKKENVEYAIRNPRSDVMKCRSHTEREQHFPFDSFFYIRNSEHEFSYSAEKGSTFTLIMYPGAVQANFDIIFMCQEKCLDLDDRRKTMCLAVFLDDENGNEILHAYIKQVRIVAYPRRDWKNFCEREDAKQKDFRFPELPAYKKASLESINIKQEVNLENMFNVTNTTAQMEPSTSYSSPSNSNNRKRFLNECDSPNNDYTMMHRTPPVTGYASRLHGCVPPIETEHENCQSPSMKRSRCTNYSFRTLTLSTAEYTKVVEFLAREAKVPRYTWVPTQVVSHILPTEGLERFLTAIKAGHDSVLFNANGIYTMGDMIREFEKHNDIFERIGIDSSKLSKYYEAFLSFYRIQEAMKLPK
notes: C. elegans p53 homolog CEP-1; called the full-length GST-CEP-1 fusion protein; pGEX vectors put GST at the N-terminus; also called GST-CEP-1 fusion protein; full-length GST-CEP-1
B1: binds.
